Source: patent US20110318347A1

Key:
human CXCR4 (human) [1] = test: competition vs [125I]-238D4 (3 nM), membranes of HEK293T cells expressing CXCR4
human CXCR4 (human) [2] = test: competition with [125I]-CXCL12 on HEK293T-CXCR4 membranes
human CXCR4 (human) [3] = test: cell-based or functional assay
human CXCR4 (human) [4] = test: competition with [125I]-238D4 on HEK293T-CXCR4 membranes
human CXCR4 (human) [5] = test: periplasmic fraction (1:10), displacement of [125I]-CXCL12, HEK293T-CXCR4 membranes; - = 0-29%, + = 30-69%, ++ = 70-100%
human CXCR4 (human) [6] = test: competition vs [125I]-238D2 (3 nM), membranes of HEK293T cells expressing CXCR4
human CXCR4 (human) [7] = target: human CXCR4 (human)
human CXCR4 (human) [8] = test: competition vs [125I]-CXCL12 (40 pM), membranes of HEK293T cells expressing CXCR4
human CXCR4 (human) [9] = test: competition with [125I]-238D2 on HEK293T-CXCR4 membranes

Sequence of Nanobody 238D2 (VHH) (VHH): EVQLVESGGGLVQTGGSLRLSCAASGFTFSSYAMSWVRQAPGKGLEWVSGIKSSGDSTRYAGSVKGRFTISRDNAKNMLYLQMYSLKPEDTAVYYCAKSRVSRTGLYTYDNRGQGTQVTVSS

With Nanobody 238D2 (VHH) the pKi (human CXCR4 (human) [1]) was 8.23, the IC50 (read off the curve) (human CXCR4 (human) [2]) was 20 nM and the Anti-HIV-1 activity (in nM), MT-4/HE (human CXCR4 (human) [3]) was 26.7 nM. It also gave an Anti-HIV-1 activity (in nM), MT-4/NL4.3 (human CXCR4 (human) [3]) of 30.7 nM, an Anti-HIV-1 activity (in nM), PBMC/HE (human CXCR4 (human) [3]) of 44.7 nM and an Anti-HIV-1 activity (in nM), PBMC/NL4.3 (human CXCR4 (human) [3]) of 30.9 nM. For the same substance, the Anti-HIV-1 activity (in nM), U87.CD4.CXCR4/NL4.3 (human CXCR4 (human) [3]) was 44.7 nM, the CRE activation, HEK293T-CXCR4-CREbgal/0.01-100 nM CXCL12, Imax (%) (human CXCR4 (human) [3]) was 104% and the Chemotaxis, Jurkat/0.3 nM CXCL12, Imax (%) (human CXCR4 (human) [3]) was 106%. It also gave an IC50, HIV-1 NL4.3, MT-4 cells, exp. 1 (human CXCR4 (human) [3]) of 0.701 µg/mL, an IC50, HIV-1 NL4.3, PBMC donor 1 (human CXCR4 (human) [3]) of 0.468 µg/mL and an IC50, HIV-1 NL4.3, PBMC donor 2 (human CXCR4 (human) [3]) of 0.307 µg/mL. The IC50, HIV-1 UG270, PBMC donor 1 (human CXCR4 (human) [3]) was 0.492 µg/mL, the IC50, HIV-1 UG270, PBMC donor 2 (human CXCR4 (human) [3]) was 0.447 µg/mL and the IC90, HIV-1 NL4.3, MT-4 cells, exp. 1 (human CXCR4 (human) [3]) was 0.849 µg/mL. For the same substance, the IC90, HIV-1 NL4.3, PBMC donor 1 (human CXCR4 (human) [3]) was over 1 µg/mL, the IC90, HIV-1 NL4.3, PBMC donor 2 (human CXCR4 (human) [3]) was over 1 µg/mL and the IC90, HIV-1 UG270, PBMC donor 1 (human CXCR4 (human) [3]) was over 1 µg/mL. For the same substance, the IC90, HIV-1 UG270, PBMC donor 2 (human CXCR4 (human) [3]) was 0.851 µg/mL, the IP accumulation, HEK293T-CXCR4-Gαqi5/30 nM CXCL12, Imax (%) (human CXCR4 (human) [3]) was 86% and the nM IC50, HIV-1 NL4.3, PBMC donor 1 (human CXCR4 (human) [3]) was 31.2 nM. The nM IC50, HIV-1 NL4.3, PBMC donor 2 (human CXCR4 (human) [3]) was 20.5 nM, the nM IC50, HIV-1 UG270, PBMC donor 1 (human CXCR4 (human) [3]) was 32.8 nM and the nM IC50, HIV-1 UG270, PBMC donor 2 (human CXCR4 (human) [3]) was 29.8 nM. The IC50 (read off the curve) (human CXCR4 (human) [4]) was 4 nM, the percent inhibition of specific [125I]-CXCL12 binding (human CXCR4 (human) [5]) was 70 to 100% and the Displacem. (%) (human CXCR4 (human) [6]) was 97%. The pKi (human CXCR4 (human) [6]) was 8.41, the IC50 (read off the curve), migration of Jurkat cells towards 0.3 nM CXCL12 (human CXCR4 (human) [7]) was 8 nM and the Displacem. (%) (human CXCR4 (human) [8]) was 93%. For the same substance, the pKi (human CXCR4 (human) [8]) was 8.01 and the IC50 (read off the curve) (human CXCR4 (human) [9]) was 6 nM.
Work on monoclonal antibody 12G5 yielded a Displacem. (%) (human CXCR4 (human) [1]) of 90%, a pKi (human CXCR4 (human) [1]) of 9.31 and a Displacem. (%) (human CXCR4 (human) [6]) of 89%. For the same substance, the pKi (human CXCR4 (human) [6]) was 9.65, the Displacem. (%) (human CXCR4 (human) [8]) was 54% and the pKi (human CXCR4 (human) [8]) was 9.19.
